This note sets out measurements from patent US20110293610A1 (published 2011).

What is called Kd is the equilibrium constant for the complex coming apart. A higher Kd goes with a looser complex. In general, koff refers to the first-order rate constant of dissociation. What is called kon is the rate constant with which the complex forms. A higher kon goes with fast association.

Test [1] deals with T1, B Lymphocyte Stimulator, soluble form (human) (human, UniProt Q9Y275 134-285, biotinylated with NHS-biotin where used as biotinylated B Lymphocyte Stimulator).
T1 construct: Coated on plastic, captured on streptavidin plates, amine-coupled to a CM5 chip or free in solution, depending on the assay; also called BLyS; immobilized B Lymphocyte Stimulator
Kind of test: phage competition ELISA. Background: An ELISA detects its analyte on a solid surface through an enzyme-linked reagent.

The next test addresses T2, Bovine serum albumin (bovine, UniProt P02769 25-607).
T2 construct: also called BSA
Nature of the test: phage ELISA.

Another test has as its target T3, Fas ligand (human, UniProt P48023 134-281, limits assumed).
T3 sequence (looked up): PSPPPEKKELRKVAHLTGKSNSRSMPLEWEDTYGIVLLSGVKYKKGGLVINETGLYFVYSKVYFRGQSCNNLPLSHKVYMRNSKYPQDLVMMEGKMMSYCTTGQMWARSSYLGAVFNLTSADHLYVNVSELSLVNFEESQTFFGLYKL
Kind of test: phage ELISA.

For the next test, the target named is T4, TNF-alpha (human, UniProt P01375 77-233).
T4 construct: also called TNFα; TNF-α
T4 sequence (P01375 77-233 limits assumed): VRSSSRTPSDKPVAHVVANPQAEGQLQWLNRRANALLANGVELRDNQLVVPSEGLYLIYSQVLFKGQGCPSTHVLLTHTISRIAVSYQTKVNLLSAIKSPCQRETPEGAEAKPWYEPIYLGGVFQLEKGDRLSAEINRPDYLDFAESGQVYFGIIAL
Kind of test: phage ELISA.

Another test concerns the target T5, TRAIL (human, UniProt P50591 114-281).
T5 construct: also called TNF-related apoptosis inducing ligand
Nature of the test: phage ELISA.

The target in test [2] is T6, membrane-bound B Lymphocyte Stimulator on U937 plasma membrane preparations (human, UniProt Q9Y275 1-285).
T6 construct: Natural protein in plasma membrane fractions of the human cell line U937 coated on ELISA plates; also called U937 plasma membranes; U937 membranes
Kind of test: phage ELISA.

The target of test [3] is T1, B Lymphocyte Stimulator, soluble form …. Kind of test: phage ELISA.
Test [4] shares this target. Kind of test: phage display panning on soluble BLyS. The source says: (§1) In a specific embodiment, antibodies of the present invention cross react with APRIL (SEQ ID NO:3239; GenBank Accession No. AF046888; J. Exp. Med. 188(6):1185-1190; PCT International Publication WO97/33902). […] These scFvs were isolated by panning a phage scFv library comprising VH and VL domains obtained from human bone marrow B cells (BM library). Phage from the BM phage library were first selected for binding to soluble B Lymphocyte Stimulator (amino acids 134-285 of SEQ ID NO:3228). A second round of selection for binding to the soluble form of APRIL (amino acids 105-250 of SEQ ID NO:3239) was then performed on the B Lymphocyte Stimulator binding phage selected in round one. A third round of selection for binding to the soluble form of APRIL (amino acids 105-250 of SEQ ID NO:3239) was then performed on the phage selected in round two. A final (fourth) round of selection for binding to the soluble form of B Lymphocyte Stimulator (amino acids 134-285 of SEQ ID NO:3228) was then performed on the phage selected in round three. Phage clones that bound B Lymphocyte Stimulator in the fourth round of selection were eluted with either 0.1M triethylamine (TEA) or with a TACI-Fc fusion protein (e.g., the extracellular domain of TACI (amino acids 31 to 159 of Genbank Accession No. AAC51790) fused to Fc).

Another test has as its target T7, APRIL, soluble form (Homo sapiens (Human), UniProt O75888 105-250).
T7 sequence: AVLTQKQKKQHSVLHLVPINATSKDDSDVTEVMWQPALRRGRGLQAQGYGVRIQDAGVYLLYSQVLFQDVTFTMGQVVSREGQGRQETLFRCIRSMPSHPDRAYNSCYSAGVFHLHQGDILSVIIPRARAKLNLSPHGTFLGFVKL
Kind of test: phage display panning on soluble APRIL, rounds two and three.
Source text: as §1

Test [5] concerns the target T8, B Lymphocyte Stimulator, soluble form (human, UniProt Q9Y275 134-285).
T8 construct: also called BLyS; Neutrokine-alpha
Kind of test: BIAcore, IgG1 captured on low-density Protein A, BLyS flowed over; mean ± SD. The method, then:
Briefly, antibodies were captured on low-density Protein A surfaces and B Lymphocyte Stimulator was passed over at various flow rates. The binding of B Lymphocyte Stimulator to immobilized antibody was detected by changes in […] that were proportional to the amount of bound B Lymphocyte Stimulator. Binding values were calculated using software provided by the manufacturer.

T2 sequence (P02769 25-607 limits assumed): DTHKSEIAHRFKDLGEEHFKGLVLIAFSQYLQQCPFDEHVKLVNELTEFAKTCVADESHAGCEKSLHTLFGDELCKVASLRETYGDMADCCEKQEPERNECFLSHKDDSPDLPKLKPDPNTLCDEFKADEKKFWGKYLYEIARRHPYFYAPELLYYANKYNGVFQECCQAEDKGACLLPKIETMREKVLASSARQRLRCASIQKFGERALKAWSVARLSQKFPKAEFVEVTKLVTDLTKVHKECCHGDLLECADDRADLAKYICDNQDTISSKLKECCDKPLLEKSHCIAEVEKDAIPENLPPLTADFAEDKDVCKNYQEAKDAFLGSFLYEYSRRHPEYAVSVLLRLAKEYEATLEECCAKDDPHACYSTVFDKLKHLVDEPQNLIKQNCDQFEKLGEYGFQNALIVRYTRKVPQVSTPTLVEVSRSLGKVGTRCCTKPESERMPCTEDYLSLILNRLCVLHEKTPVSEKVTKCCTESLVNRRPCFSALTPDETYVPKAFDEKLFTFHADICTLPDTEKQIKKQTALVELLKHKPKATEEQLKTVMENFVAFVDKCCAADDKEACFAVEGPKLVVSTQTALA
T5 sequence (P50591 114-281 limits assumed): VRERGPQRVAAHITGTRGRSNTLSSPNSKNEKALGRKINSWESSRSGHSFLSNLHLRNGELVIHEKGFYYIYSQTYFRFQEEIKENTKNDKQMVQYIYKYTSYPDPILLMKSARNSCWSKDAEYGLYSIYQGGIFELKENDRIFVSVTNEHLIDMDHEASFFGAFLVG

B1: I016F04 (scFv)
scFv: QVQLQQSGSELKKPGASVKVSCKVSGYSLTKMSMHWVRQSPGEGLEWVGGIDPETRQPVYAQKFQGRVTITKDTSASAAYMELSSLGSEDTALYYCARATYDPLTGYSFDGFDIWGQGTLVTVSSGGGGSGGGGSGGGGSQSVLTQPASVSGSPGQSITISCTGTSSDVGGYNYVSWYQQHPGKAPKLMIYEGSKRPSGVSNRFSGSKSGNTASLTISGLQAEDEADYYCSSYTTRSTRVFGGGTKLTVLG
As to B1, the binding result in [1] is recorded as “binds”; with Bovine serum albumin it was “no binding”; with Fas ligand, “no binding”; with TNF-alpha, “no binding”; with TRAIL, “no binding”; in test [2] it was “binds”.

B2: I006E07 (scFv)
scFv: QVQLQQSGAEEKKPGASVKVSCKASGYTFTSYAMHWVRQAPGQRLEWMGWINAGNGNTKYSQKFQGRVAITRDTSASTAYMELSSLRSEDTAVYYCARADYDILTGYSPLTYGMDVWGRGTLVTVSSGGGGSGGGGSGGGGSDIQMTQSPSTLSASIGDRVTITCRASEGIYHWLAWYQQKPGKAPKLLIYKASSLASGAPSRFSGSGSGTDFTLTISSLQPDDFATYYCQQYSNYPLTFGGGTKLEIKR
In the case of B2, the binding result in test [3] is recorded as “binds”; with Bovine serum albumin it was “no binding”; with TNF-alpha, “no binding”; in test [2], “binds”.

B3: BAB2019 (scFv)
scFv: EVQLVQSGAEVKKPGASVKVSCKASGYTFTSSGISWVRQAPGQGLEWMGWINGYNGNTKYAQKFQGRVTMTTDTSTTTAYMELRSLRSDDTAVYYCARDSYDILTDYYNMIMDVWGQGTLVTVSSGGGGSGGGGSGGGGSQSVLTQPASVSGSPGQSITISCTGTSSDVGGYNYVSWYQQHPGKAPKLMIYEGSKRPSGVSNRFSGSKSGNTASLTISGLQAEDEADYYCSSYTTRSTRVFGGGTKLTVLG
Regarding B3, the binding result in [4] was “binds”; with APRIL, soluble form it was “binds”.

B4: BAB2016 (scFv)
scFv: EVQLVQSGGGLVQPGGSLRLSCAASGFTFSSYWMSWVRQAPGKGLEWVANIKQDGSGKYYVDSVKGRFTISRDNAKNSLYLQMNSLRAEDTAVYYCARDPRYDILTGYLYGMDVWGQGTMVTVSSGGGGSGGGGSGGGGSQSVLTQPASVSGSPGQSITISCTGTSSDVGGYNYVSWYQQHPGKAPKLMIYEGSKRPSGVSNRFSGSKSGNTASLTISGLQAEDEADYYCSSYTTRSTRVFGGGTKLTVLG
As for B4, the binding result is given as “binds” in [4] and “binds” with APRIL, soluble form.

B5: BAB2065 (scFv)
scFv: GVQLVQSGAEVKKPGASVKVSCKASGYTFTKYTMHWVRQAPGQGPEWMGWINGGSGDTKYSRKFQGRVTITKDTSASAAYMELSSLGSEDTALYYCARATYDPLTGYSFDGFDIWGQGTMVTVSSGGGGSGGGGSGGGGSSELTQPASVSGSPGQSITISCTGTSSDVGGYNYVSWYQQHPGKAPKLMIYEGSKRPSGVSNRFSGSKSGNTASLTISGLQAEDEADYYCSSYTTRSTRVFGGGTKLTVLG
As for B5, the binding result in [4] is “binds”; with APRIL, soluble form, “binds”.

B6: BAB2015 (scFv)
scFv: QVQLVQSGAEVKKPGSSVKVSCKASGGTLGNYGISWVRQAPGQGLEWMGAIIPNFGTTNYVQKFQGRVTMTTDTSTSTAYMELRSLRSDDTAVYYCARGASSGWYDYYYYMDVWGKGTMVTVSSGGGGSGGGGSGGGGSDIQMTQSPSTLSASIGDRVTITCRASEGIYHWLAWYQQKPGKAPKLLIYKASSLASGAPSRFSGSGSGTDFTLTISSLQPDDFATYYCQQYSNYPLTFGGGTKLEIRR
As to B6, the binding result in test [4] is given as “binds”; with APRIL, soluble form, “binds”.

B7: BAB2080 (scFv)
scFv: KVQLVQSGGGLVKPGGSLRLSCAASGFTFSNYGMHWVRQAPGKGLEWVALISYDGSNKYYADSVKGRFTISRDNSKNTLYLQMNSLRAEDTAVYYCAKLNSLRGGHDYWGRGTLVTVSSGGGGSGGGGSGGGGSQSVLTQPPSVSAAPGQKVTISCSGSTSNIGNNYVSWYQQHPGKAPKLMIYDVSKRPSGVPDRFSGSKSSNSASLDISGLQSEDEADYYCAAWDDSLSEFLFGTGTKLTVLG
Turning to B7, the binding result in [4] is “binds”; in the test with APRIL, soluble form, “binds”.

B8: BAB2087 (scFv)
scFv: QVQLVQSGAEVKKPGASVKVSCKASGFAFSSYDINWVRQAPGQGLEWMGWMNPKSGKTGYAQNFQGRVTMTRNTSISTAYMELSSLKSEDTAVYFCARGFTGYDILTDYYSVDYFDSWGRGTLVTVSSGGGGSGGGGSGGGGSALPVLTQPPSVSVAPGQTARITCGGSSIGRKSVHWYQQSPGQAPVLVVYDDSDRPSGIPERFSGSNSGDTATLTISRVEVGDEADYYCQVWDINSDHVVFGGGTKLTVLG
Turning to B8, the binding result in test [4] was “binds”; with APRIL, soluble form, “binds”.

B9: BAB2034 (scFv)
scFv: QVQLQQSGPGLVKPSQTLSLTCAISGDSVSSNSAAWNWIRQSPSRGLEWLGRTYYRSKWYNDYAVSVKSRITINPDTSKNQFSLQLNSVTPEDTAVYYCAREGAHYDILTGHNYYHYGMDVWGQGTMVTVSSGGGGSGGGGSGGGGSQSVLTQPPSASGSPGQSVTISCTGTSSDVGGYNYVSWYQQHPGKAPKFMIYDVSKRPSGVSNRFSGSKSGNTASLTISGVQAEDEADYYCSSYTSASTVIFGGGTKLTVLG
For the molecule B9, the binding result in test [4] is “binds”; with APRIL, soluble form, “binds”.

B10: I116A01 IgG1 (antibody, V domains shown)
VH: QVQLQQSGAEVKKPGSSVRVSCKASGGTFNNNAINWVRQAPGQGLEWMGGIIPMFGTAKYSQNFQGRVAITADESTGTASMELSSLRSEDTAVYYCARSRDLLLFPHHALSPWGRGTMVTVSS
VL: SSELTQDPAVSVALGQTVRVTCQGDSLRSYYASWYQQKPGQAPVLVIYGKNNRPSGIPDRFSGSSSGNTASLTITGAQAEDEADYYCSSRDSSGNHWVFGGGTELTVLG
In [5], B10 showed a dissociation constant (Kd) of 0.267 nM, a koff of 0.000332 s⁻¹ and an association rate constant (kon) of 1.26e+06 M⁻¹ s⁻¹.

B11: I006D08 IgG1 (antibody, V domains shown)
VH: QVQLQQSGAEVKKPGSSVRVSCKASGGTFNNNAINWVRQAPGQGLEWMGGIIPMFGTAKYSQNFQGRVAITADESTSTASMELSSLRSEDTAVYYCARSRDLLLFPHYGMDVWGRGTMVTVSS
VL: SSELTQDPAVSVALGQTVRVTCQGDSLRSYYASWYQQKPGQAPVLVIYGKNNRPSGIPDRFSGSSSGNTASLTITGAQAEDEADYYCNSRDSSGNHWVFGGGTELTVLG
As to B11, in test [5], binding was put at a Kd of 0.498 nM, the koff was determined as 0.00058 s⁻¹ and the association rate constant (kon) worked out at 1.43e+06 M⁻¹ s⁻¹.

B12: I008D05 (scFv)
scFv: GVQLVQSGAEVKKPGSSVKISCKASGVTFNDYAFSWVRQAPGQGLEWVGGIIPKFGKAKYAQKFQGRLTISGDKSTSTAYMELRSLTSDDTAVYYCARATYDPLTGYSFDGFDIWGQGTMVTVSSGGGGSGGGGSGGGGSQSVLTQPASVSGSPGQSITISCTGTSSDVGGYNYVSWYQQHPGKAPKLMIYEGSKRPSGVSNRFSGSKSGNPASLTISGLQAEDEADYYCSSYTTRSTRVFGGGTKLTVLG
notes: also called 1008D05
B12: the binding result in test [3] was “binds”; with Bovine serum albumin it was “no binding”; in the test with TNF-alpha, “no binding”; in [2] it was “binds”.
